Assay results as given in publication PMC7666158, “Co-regulation of the transcription controlling ATF2 phosphoswitch by JNK and p38” (Nature Communications, 2020).

What was measured:
pp-p38 (activated, …) [1] = target: T1, pp-p38 (activated, double-phosphorylated p38alpha) (human, UniProt Q16539 1-360, double-phosphorylated on the activation loop (pp-p38; T180/Y182 as named for the anti-pp-p38 antibody; pY182 in Fig. 5b)); test: in vitro kinase assay fitted with a kinetic model; 5 nM pp-JNK or pp-p38, MBP-ATF2(19-100) substrate 0.5-100 uM, 5 mM ATP, kinase buffer; p-T71 and p-T69/T71 by quantitative dot-blots; binding rates (kon, koff) and reaction rates fitted simultaneously with the BioNetGen model (PyBioNetFit); settings: both partners purified
T1 construct: human p38alpha (MAPK14), phosphorylated form; also called pp-p38α; source: E. coli, co-expressed with constitutively active GST-tagged MAP2Ks, purified

pp-p38 (activated, …) [2] = target: T1, pp-p38 (activated, …); test: as above; settings: both partners purified; remark: listed apart in the source

T1 sequence (Q16539 whole entry): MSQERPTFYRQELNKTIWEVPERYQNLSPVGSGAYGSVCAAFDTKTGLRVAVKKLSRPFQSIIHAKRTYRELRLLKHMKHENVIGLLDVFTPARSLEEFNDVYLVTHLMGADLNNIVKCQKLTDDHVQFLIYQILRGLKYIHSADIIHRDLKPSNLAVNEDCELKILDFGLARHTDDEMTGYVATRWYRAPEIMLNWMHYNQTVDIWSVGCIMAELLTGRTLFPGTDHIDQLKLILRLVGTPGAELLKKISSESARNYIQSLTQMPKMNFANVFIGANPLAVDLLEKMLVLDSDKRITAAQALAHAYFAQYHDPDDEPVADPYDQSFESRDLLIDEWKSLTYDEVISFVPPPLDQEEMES

Kd (pp-p38 (activated, …) [1]): ~25 µM | koff (pp-p38 (activated, …) [2]): 429 s⁻¹ | kon (pp-p38 (activated, …) [2]): 1.72e+07 M⁻¹ s⁻¹
B1: MBP-ATF2(19-100)-WT (domain or fragment, human, UniProt P15336-1 19-100, looked up)
chain: MSDDKPFLCTAPGCGQRFTNEDHLAVHKHKHEMTLKFGPARNDSVIVADQTPTPTRFLKNCEEVGLFNELASPFENEFKKAS
notes: A TEV site lies between MBP and ATF2; also called MBP-ATF2-His6; ATF2 TAD; source: E. coli BL21(DE3), purified (Ni-NTA, maltose resin); not shown: MBP, N-terminal, kept; His6, C-terminal, kept
